Measured values as given in patent US20250034594A1, “RNA-GUIDED GENOME RECOMBINEERING AT KILOBASE SCALE” (THE BOARD OF TRUSTEES OF THE LELAND STANFORD JUNIOR …, priority 2021, published 2025).

B1: SSAP_85: SEQ ID NO: 254 (protein)
chain: TASKQTDIFSFVSGGEDITITLADIKNYFCANATDQECVLFGQLCKANGLNPWLKEAYLIKYDKNAPAAMVTGKDAYMKRANEHPAFDGYEAGVKVYLPDVGQVEYREGTAYYEDLGEQLIGGYAKVYRKDRSRPYYEEVPLKEYDTKQSKWKTSPATMIRKVALVHALREAFPTNIQGMYDADETPYAADYEGSFREMDDPTPAPSMRGRIAPAPVADPLEDLEADVIEAGDVE
B2: SSAP_110: SEQ ID NO: 279; Aneurinibacillus tyrosinisolvens (protein, listed as Aneurinibacillus tyrosinisolvens)
chain: SDLKEKLEKRANETEAAPPSPAQTIAAYLKRMEPEIARALPKHMDVERLTRIALTTIRTNPRLLECTVPSLLGAVMQAAQLGLEPGLLGQCYIIPHGREATFIIGYKGMIDLARRSGNIKSIYAHDVRENDEFEYEYGLHPFLKHRPAMTDRGKFIGVYAVAHFNDGGYQFEFMPYEEIERRKLRSRSYKNGPWVTDYEEMAKKTVIRHMFKYLPLSVEIMRSAAQDETVRPDLTSDPVSIYERPIEGKIITAEDVQPEEIPNVPDAEQGDV
B3: SSAP_168: SEQ ID NO: 337; Romboutsia lituseburensis (protein, listed as Romboutsia lituseburensis)
chain: SNLKNVLKNQEDKGQGITVNPTYAMKQLMIKMKNDIDLALPKNLSSERFQKVSMSAFNNNEKLQNCEPTTFIAAMMQSAQLGLEPNTPLGQVYLIPHNLNGVDKVQFQVGYKGLLQLAHRSGKLKTLYAHEVKENDEFEIDYGLEQKLIHKPLLKGNRGDVIGYYAVYHLEPSGYSFEFMTYDEVAKHGKKYSKDFEGGIWEKDFDSMAKKTVIKKLLKYAPLSIEMQKAVAFDESVKSSIDSDMLLVESIGE
B4: SSAP_61: SEQ ID NO: 230 (protein)
chain: ATSLKRAVTGDGKPATVQQLLTNPKIKSQIALALPQHLTPERLTRIVLTEIRRTPALAKCKPESLLAAVMQCAQLGLEPGGSLGHAWLMPFKNEVQFIIGYRGMIDLARRSGQVLSIEARGVYESDTFHVSFGLEPDLTHQPDWDPADRGKLAFVYAVARLKDGGFQFDVMSRAEVEKIRAQSPAGKSGPWVTHFEEMAKKTVIRRLFKYLPVSVEMARAVGLDEAAERGEQSDAIDADCVIESEEEATPEEKGDSAA
B5: SSAP_248: SEQ ID NO: 417; Peptoniphilus senegalensis (protein, listed as Peptoniphilus senegalensis)
chain: TNQIARKPVNEIKNVLSVPSVRNLFDNALADNAGAFVSSLIDLYGGDSYLQNCEPKDVVMEALKAATLKLPINKNLGFGYVVPFKNKNGKLVPTFIIGYKGLIQLAMRTGQYKAINSGIIYEGMEIKEDVLRGTLEIKGSKQSEKIKGYFAYFQLINGFEKALYMDVEEAADWGRKYSKSFAKGPWTTEFDAQAQKTCLRRLLSKYGVLSTEMQRLEKTEEDVDIAVGTIENNAVEELNIPSSQADYIVDEETGEILDDEEIVAPF
B6: SSAP_128: SEQ ID NO: 297; Viridibacillus sp. FSL H8-0123 (protein, listed as Viridibacillus sp.)
chain: ATNNALKEQMKQAPSKEVKPEQSLNTLLKRMGPEIQRALPKHMDADRIARIALTAVRNTPKLLDCDQMSFVAALMQSAQLGVEPNTGLGQAYLIPYGKQVQFQLGYKGLIDLAVRSGQYKAIYAHEVYEDDEFSFAYGLHKDLVHVPAPNPTGEPIGYYAVYHLQNGGYDFVYWTRERIDQHAHKFSMAVQKGWTSPWKTNFDAMAKKTVLKEVLKYAPKSIEMQKVVDADETVKTDVSDDMSNVIDVTDYTVMDQEQETIQEPTK
B7: SSAP_24: SEQ ID NO: 193 (protein)
chain: TNNQIVEAKGDFLTNPQLLNSGIIRKYLDPQGKASDEELAYFIAQAKAQNLNPFTKEIYFIKYGTQPAQIVTAKSAFEKKADSHPQFDGKEAGVIYLMDGEIKYSKGAFIPKGAEILGGWAKVYRKDRTYPTETEVSFEEYDNSKIRARVKELTQQGKDVTYPVMNSYGKPIGENNWDTMPCVMIRKVALVSAYREAFPAELGASYEADEIQLDNTPKDVTPQESREDVVARKMAEIEQFNKEQEANHADPEPTQNEDPIQGELLDGELEY
B8: SSAP_99: SEQ ID NO: 268; Pseudomonas stutzeri (protein, listed as Pseudomonas stutzeri)
chain: STENVAPFSQKDMQQATGQQVKPRSPADSLAAMLASPKMKAQFAAALPKHMTAERMARIVTTEIRKTPALVKCDQHSFLGSVIQCAQLGLEPGNSLGHAYLLPYGNQVQLIIGYRGMIDLARRSGQIVSLSARTVREHDEFDYQLGLHEDLTHKPFEGEHAGEITHVYAVARLQGGGVQFEVMSKAQVEAVRAQSKAGKSGPWVSHWEEMAKKTVIRRLFKYLPVSVEIQRAVTLDEAAEAGLPQGNEYVFDGDFEVVNDASGAQQ
B9: SSAP_60: SEQ ID NO: 229 (protein)
chain: ASKNEAIEVSPAEIASVKEKPASIVKAEKAKKEPCALVKYEDAEGREVVLTREDIINTISSNPRITDKEIKLFIELARAQKLNPFTREIFITKYGDYPATFIVGKDVFTKRAQSNPLFKGMQAGIIVQRGNAVDQREGSATFGDEMLIGGWCKVYVQGYDVPIYDSVSFNEYAARKTDGTLNAMWASKPATMIRKVAIVHALREAFPSDFQGLYDQSEMGLSGQGGE
B10: SSAP_156: SEQ ID NO: 325; Bacillus sp. AFS017336 (protein, listed as Bacillus sp.)
chain: ATNESLKNQITNKKTGEVPLTPAQQVSSYLKAYEGTFQQIAPKHFNTERFQRIALSEIRKNPKLLECSVPSLMSAVLQSVKLGLEPGLFGQAYLIPYGKEVQFQIGYRGLIELSQRSGRILKIQAREVYENDEFEVSYGIDDNIIHKPALDVDRGKVRLYYAVAWFKDGGAQFELMSISDVEKHRDKFSKTAKFGPWKDHFDEMAKKTVLKKLVKQLPMDVEFQEAVQEDETVRKTITDEPEILQAEFEIVDQPEISVE
B11: SSAP_13: SEQ ID NO: 182 (protein)
chain: ANELGIFSVDNLNMTTIKQYLDGGGKASDAELVLLINLCKQNNMNPFMKEVYFIKYGNQPAQIVVSRDFYRKRAFQNPNFVGIEVGVIVLNKDGVLEHNEGTFKTHEQELVGAWARVHLKNTEIPVYVAVSYDEYVQMKDGHPNKMWTNKPCTMLGKVAESQALRMAFPAEFSGTYGEEEFPEPEKEPREVNGVKEPDRAQIESFDKEDYAAKKIEELKEKAQPQKEVVEETGEVIDEEPLEGF
B12: SSAP_174: SEQ ID NO: 343; Hespellia stercorisuis (protein, listed as Hespellia stercorisuis)
chain: ADIKEELAKKVAEGTEDKKKLTKSMSIADLIKAMEPEIKKALPEVITPERFTRMALSALNTTPKLKECTQTSFLTALMNAAQLGLEPNTPLGQAYLIPYKNKGNLECQFQIGYKGLIDLSYRNRQMQIIQAQAVYENDEFEYELGLNPVLVHRPALQNRGAVKLFYGIFKLTNGGFGFEVMSKADMDAYAKEYSKAFDSSFSPWKSNYIGMAKKTVIKQAIKYAPLKTDFRKALSTDETIKTEFCEDMSEVQCKDIWDTEYKERSA
B13: SSAP_217: SEQ ID NO: 386; Streptomyces noursei (protein, listed as Streptomyces noursei)
chain: TSPIRAAVARRAGDPAALISQYTADFAAVLPSHIKPATFVRLAQGILRRDEKLAQAAANDPGQFMSVLLDAARLGLEPGTEAYYLVPFKGRVQGIVGWQGEIELMYRAGAISSVIVETVREDDVFVWTPGLVDRETPPRWEGPMSYPFHEVEWAGDRGPLRLVYAYAVMKGGATSKVVVLNAQDIERAKKTSQGADSPSSPWRQHEAAMWSKTAVHRLAKYVPTSAEYITAQVRAVRQADALSAPPVEEVVDVELVGDGQEQEARR

The molecules below were run on gene editing with Cas9 (assay: Screen of 322 new SSAP proteins, gene editing activity with Cas9 (Table 5)). Conditions: not given.
Format: cell-based
Design: Cas9 with SSAP activity: scale not given here
Procedure, shortened: (§1)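 Read-out is gene editing activity. Candidates come from sequence data mining, are made synthetically, and are tested alongside either nuclease-active Cas9 or catalytically dead dCas9.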

Molecule	Cas9 with SSAP activity
B1	−0.312
B2	−2.674
B3	0.735
B4	−1.348
B5	−0.854
B6	0.839
B7	−3.642
B8	−3.807
B9	0.757
B10	0.844
B11	−0.463
B12	−3.891
B13	−1.938

Same assay, conditions: normalized

Molecule	Cas9 with SSAP activity (normalized)
B1	−0.125
B2	−0.477
B3	1.158
B4	−0.539
B5	−1.210
B6	0.272
B7	−0.681
B8	−0.873
B9	0.560
B10	2.230
B11	−0.403
B12	−0.617
B13	−1.023

The molecules below were run on gene editing with dCas9 (assay: Screen of 322 new SSAP proteins, gene editing activity with dCas9 (Table 5)). Conditions: not given.
Format: cell-based
Design: dCas9 with SSAP activity: scale not given here
Procedure, shortened: as §1

Molecule	dCas9 with SSAP activity
B1	−5.091
B2	−5.104
B3	−5.210
B4	−5.258
B5	−5.272
B6	−5.299
B7	−5.319
B8	−5.333
B9	0.311
B10	−5.389
B11	−5.545
B12	−5.563
B13	−5.577

Same assay, conditions: normalized

Molecule	dCas9 with SSAP activity (normalized)
B1	−1.071
B2	−1.491
B3	−0.836
B4	−0.804
B5	−0.814
B6	−0.965
B7	−0.711
B8	−0.891
B9	0.109
B10	−0.877
B11	−0.758
B12	−1.144
B13	−0.839

These molecules were tested on gene editing with Cas9 and dCas9 (assay: Screen of 322 new SSAP proteins, activity across all experiments (Cas9 and dCas9, Table 5)). Conditions: not given.
Format: cell-based
Design: scale not given here
Procedure, shortened: as §1

Molecule	Activity across all experiments
B1	−2.702
B2	−3.889
B3	−2.237
B4	−3.303
B5	−3.063
B6	−2.230
B7	−4.480
B8	−4.570
B9	0.534
B10	−2.272
B11	−3.004
B12	−4.727
B13	−3.758
